T1: mouse Claudin-6 (CLDN6) (mouse, UniProt Q9Z262 1-219)
T1 construct: whole, on cells; GFP fusion on engineered HEK293T cells; also called Mouse CLDN6; murine CLDN6
T1 sequence (looked up): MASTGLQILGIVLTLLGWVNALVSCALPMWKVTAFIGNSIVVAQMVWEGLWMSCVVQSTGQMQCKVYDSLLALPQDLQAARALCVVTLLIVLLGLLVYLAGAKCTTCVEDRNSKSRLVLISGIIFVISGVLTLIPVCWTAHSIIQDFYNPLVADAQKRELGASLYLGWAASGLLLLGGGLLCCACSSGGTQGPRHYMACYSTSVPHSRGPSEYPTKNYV


What was measured:
[1] = target: human Claudin-6 (CLDN6) (human) (UniProt P56747); experiment: FACS, 1.5 ug Ab, 293T clone expressing human CLDN6 (2nd Ab only 768.07)
[2] = target: human Claudin-6 (CLDN6) (human) (UniProt P56747); experiment: FACS, 0.3 ug Ab, ARK2 cells (2nd Ab only 1351.21)
[3] = target: human Claudin-6 (CLDN6) (human) (UniProt P56747); experiment: FACS, 0.3 ug Ab, 293T clone expressing human CLDN6 (2nd Ab only 768.07)
[4] = target: human Claudin-6 (CLDN6) (human) (UniProt P56747); experiment: FACS, 1.5 ug Ab, ARK2 cells (2nd Ab only 1351.21)
mouse Claudin-6 (CLDN6) = target: T1, mouse Claudin-6 (CLDN6); experiment: FACS, 293T clone expressing mouse CLDN6, dose not stated (2nd Ab only 1061.72)
Procedure: Two doses (1.5 μg or 0.3 μg) of the humanized antibodies were tested for binding to either human CLDN6 or murine CLDN6 which proteins were expressed by engineered 293T clones.

[5] = target: human Claudin-6 (CLDN6) (human) (UniProt P56747); experiment: FACS, 1.5 ug Ab, OVCA429 cells (2nd Ab only 885.77)

| Binder | FACS fluorescence [1] | FACS fluorescence [2] | FACS fluorescence [3] | FACS fluorescence [4] | FACS fluorescence (mouse Claudin-6 (CLDN6)) | FACS fluorescence [5] |
| --- | --- | --- | --- | --- | --- | --- |
| AB3-3 (antibody, V domains shown, humanized) VH: EVQLLESGGGLVQPGGSMRLSCAASGFTFSNYWMNWVRQAPGKGLEWVAQIRLKSDNYATHYADSVKGRFTISRDDSKNTVYLQMNSLRAEDTGVYYCNDGPPSGCWGQGTLLTVSS VL: DIQMTQSPSSLSASVGDRVTITCRISENIYSYLAWYQQKPGKAPKLLVYNAKILVEGVPSRFSGSGSGTDFTLTISSLQPEDFGTYYCQHHYTVPWTFGQGTKLEIK | 340000 | 1160 | 251000 | 54900 | 23000 | 88700 |
| AB3-4 (antibody, V domains shown, humanized) VH: EVQLLESGGGLVQPGGSMRLSCAASGFTFSNYWMNWVRQAPGKGLEWVAQIRLKSDNYATHYADSVKGRFTISRDDSKNTVYLQMNSLRAEDTGVYYCNDGPPSGYWGQGTLLTVSS VL: DIQMTQSPSSLSASVGDRVTITCRISENIYSYLAWYQQKPGKAPKLLIYNAKILVEGVPSRFSGSGSGTDFTLTISSLQPEDFATYYCQHHYTVPWTFGQGTKLEIK | 55800 | 1320 | 11600 | 1460 | 1520 | 2960 |
| AB3-2 (antibody, V domains shown, humanized) VH: EVQLLESGGGLVQPGGSMRLSCAASGFTFSNYWMNWVRQAPGKGLEWVAQIRLKSDNYATHYADSVKGRFTISRDDSKNTVYLQMNSLRAEDTGVYYCNDGPPSGCWGQGTLLTVSS VL: DIQMTQSPSSLSASVGDRVTITCRISENIYSYLAWYQQKPGKAPKLLIYNAKILVEGVPSRFSGSGSGTDFTLTISSLQPEDFATYYCQHHYTVPWTFGQGTKLEIK | 396000 | 14700 | 309000 | 33600 | 31700 | 85900 |
| AB3-5 (antibody, V domains shown, humanized) VH: EVQLLESGGGLVQPGGSMRLSCAASGFTFSNYWMNWVRQAPGKGLEWVAQIRLKSDNYATHYADSVKGRFTISRDDSKNTVYLQMNSLRAEDTGVYYCNDGPPSGYWGQGTLLTVSS VL: DIQMTQSPSSLSASVGDRVTITCRISENIYSYLAWYQQKPGKAPKLLVYNAKILVEGVPSRFSGSGSGTDFTLTISSLQPEDFGTYYCQHHYTVPWTFGQGTKLEIK | 48600 | 1280 | 13300 | 2910 | 783 | 2950 |
| AB1-7 (antibody, V domains shown, humanized) VH: QVQLVQSGAEVKKPGASVKMSCKASGYTFTTYTMHWVRQAPGQGLEWIGFINPSSGYTDYAQKFQGRVTLTADTSTSTVYMELSSLRSEDTAVYYCANGDYYVAYWGQGTLVTVSS VL: DIQLTQSPSSLSASVGDRVTMTCTASSSVSSTYFHWYQQKPGKAPKLLIYSTSNLASGVPSRFSGSGSGTDYTLTISSMQPEDAATYYCHQYHRSPLTFGQGTKLEIK | 207000 | 4440 | 79200 | 11200 | 99700 | 44700 |
| AB1-4 (antibody, V domains shown, humanized) VH: QVQLVQSGAEVKKPGASVKVSCKASGYTFTTYTMHWVRQAPGQGLEWMGFINPSSGYTDYAQKFQGRVTMTADTSTSTVYMELSSLRSEDTAVYYCANGDYYVAYWGQGTLVTVSS VL: DIQLTQSPSSLSASVGDRVTMTCTASSSVSSTYFHWYQQKPGKAPKLLIYSTSNLASGVPSRFSGSGSGTDYTLTISSMQPEDAATYYCHQYHRSPLTFGQGTKLEIK | 197000 | 3640 | 102000 | 10000 | 75900 | 34600 |
| AB1-8 (antibody, V domains shown, humanized) VH: QVQLVQSGAEVKKPGASVKMSCKASGYTFTTYTMHWVRQAPGQGLEWIGFINPSSGYTDYAQKFQGRVTLTADTSTSTVYMELSSLRSEDTAVYYCANGDYYVAYWGQGTLVTVSS VL: DIQLTQSPSSLSASVGDRVTMTCTASSSVSSTYFHWYQQKPGKAPKLWIYSTSNLASGVPSRFSGSGSGTDYTLTISSMQPEDAATYYCHQYHRSPLTFGQGTKLEIK | 210000 | 5810 | 98800 | 17600 | 122000 | 66000 |
| AB1-5 (antibody, V domains shown, humanized) VH: QVQLVQSGAEVKKPGASVKVSCKASGYTFTTYTMHWVRQAPGQGLEWMGFINPSSGYTDYAQKFQGRVTMTADTSTSTVYMELSSLRSEDTAVYYCANGDYYVAYWGQGTLVTVSS VL: DIQLTQSPSSLSASVGDRVTMTCTASSSVSSTYFHWYQQKPGKAPKLWIYSTSNLASGVPSRFSGSGSGTDYTLTISSMQPEDAATYYCHQYHRSPLTFGQGTKLEIK | 213000 | 7490 | 138000 | 22400 | 128000 | 54300 |
| AB1-3 (antibody, V domains shown, humanized) VH: QVQLVQSGAEVKKPGASVKVSCKASGYTFTTYTMHWVRQAPGQGLEWMGFINPSSGYTDYAQKFQGRVTMTADTSTSTVYMELSSLRSEDTAVYYCANGDYYVAYWGQGTLVTVSS VL: DIQMTQSPSSLSASVGDRVTITCTASSSVSSTYFHWYQQKPGKAPKLLIYSTSNLASGVPSRFSGSGSGTDYTLTISSLQPEDFATYYCHQYHRSPLTFGQGTKLEIK | 142000 | 2830 | 142000 | 10800 | 89300 | 27500 |
| AB1-Chim (antibody, V domains shown) VH: QVQLQQSAAELARPGASVKMSCKASGYTFTTYTMHWVKQRPGQGLEWIGFINPSSGYTDYNQKFKDRTTLTADKSSSTVYMQLSSLTSEDSAVYYCANGDYYVAYWGQGTLVTVSA VL: QIVLTQSPAIMSASLGERVTMTCTASSSVSSTYFHWYQQKPGSSPKLWIYSTSNLASGVPRRFSGSASGTSYSLTISSMEAEDAATYYCHQYHRSPLTFGAGTKLELK | 364000 | 58800 | 312000 | 51900 | 514000 | 177000 |
| AB4-chim (antibody, V domains shown) VH: QVQLQQSGAELARPGASVKMSCKASGYTFTSYTMHWIKQRPGQGQEWIGYINPSSTYTHYIKKFKDKATLTADKSSSTAYMQLRSLTSEDSAVYYCSRGELGGFAYWGQGTLVTVSA VL: DVVMTQTPLSLPVSLGDQASISCRSSQSLVHSDGNTYLNWYLQKPGQSPKLLIYKVSNRFSGVPDRFSGSGSGTDFTLKIRRVEAEDLGVYFCSQSTHVPYTFGGGTKLEIK | 327000 | 19100 | 176000 | 38400 | 3640 | 64800 |
| AB3-chim (antibody, V domains shown) VH: EVKLEESGGGLVQPGGSMKLSCVASGFTFSNYWMNWVRQSPEKGLEWVAQIRLKSDNYATHYAESVKGRFTISRDDSKRSVYLQMNNLRAEDTGTYYCNDGPPSGCWGQGTTLIVSS VL: DIQMTQSPASLSASVGETVTITCRISENIYSYLAWYQQKQGKSPQLLVYNAKILVEGVPSRFSGSGSGTQFSLKINSLQPEDFGNYYCQHHYTVPWTFGGGTKLEIK | 459000 | 17100 | 267000 | 29100 | 67900 | 138000 |
| AB4-4 (antibody, V domains shown, humanized) VH: QVQLVQSGAEVKKPGASVKMSCKASGYTFTSYTMHWIRQAPGQGLEWIGYINPSSTYTHYAQKFQGRATLTADTSTSTAYMELSSLRSEDTAVYYCSRGELGGFAYWGQGTLVTVSS VL: DVVMTQSPLSLPVTLGQPASISCRSSQSLVHSDGNTYLNWYQQRPGQSPRLLIYKVSNRFSGVPDRFSGSGSGTDFTLKISRVEAEDVGVYYCSQSTHVPYTFGQGTKLEIK | 49000 | 1050 | 14100 | 1400 | 741 | 1200 |
| AB4-3 (antibody, V domains shown, humanized) VH: QVQLVQSGAEVKKPGASVKVSCKASGYTFTSYTMHWVRQAPGQGLEWMGYINPSSTYTHYAQKFQGRVTMTADTSTSTVYMELSSLRSEDTAVYYCSRGELGGFAYWGQGTLVTVSS VL: DVVMTQSPLSLPVTLGQPASISCRSSQSLVHSDGNTYLNWYQQRPGQSPRLLIYKVSNRFSGVPDRFSGSGSGTDFTLKISRVEAEDVGVYYCSQSTHVPYTFGQGTKLEIK | 47800 | 1190 | 14300 | 1520 | 671 | 1160 |

Source: patent US20230049752A1 (University of California, published 2023)
